Measurements as given in article PMC314469, “Protein Interaction Networks by Proteome Peptide Scanning” (PLoS Biology, 2004).

T1: Boi1 SH3 (BOI1_YEAST), P38041
T1 chain: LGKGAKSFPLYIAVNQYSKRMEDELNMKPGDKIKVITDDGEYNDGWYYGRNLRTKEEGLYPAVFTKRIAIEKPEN

T2: Boi2 SH3 (BOI2_YEAST), P39969
T2 chain: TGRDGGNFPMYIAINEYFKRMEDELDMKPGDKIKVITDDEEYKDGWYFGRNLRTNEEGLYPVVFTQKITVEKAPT

T3: Rvs167 SH3 (RV167_YEAST), P39743
T3 chain: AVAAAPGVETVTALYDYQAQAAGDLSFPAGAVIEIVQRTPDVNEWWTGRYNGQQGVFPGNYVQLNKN

T4: Yfr024 SH3 (LSB3_YEAST), P43603
T4 chain: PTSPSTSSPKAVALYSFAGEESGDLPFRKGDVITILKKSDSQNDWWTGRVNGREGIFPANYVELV

T5: Yhr016c SH3 (YSC84_YEAST), P32793
T5 chain: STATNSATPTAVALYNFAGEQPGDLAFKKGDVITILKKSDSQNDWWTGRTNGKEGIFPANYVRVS


Assays:
Assay in all cases: SPOT array
[1] = molecular target: T1, Boi1 SH3 (BOI1_YEAST), P38041
[2] = molecular target: T2, Boi2 SH3 (BOI2_YEAST), P39969
[3] = molecular target: T3, Rvs167 SH3 (RV167_YEAST), P39743
[4] = molecular target: T4, Yfr024 SH3 (LSB3_YEAST), P43603
[5] = molecular target: T5, Yhr016c SH3 (YSC84_YEAST), P32793

Row | normalised SPOT signal, Boehringer light units (BLU); mean over the file's lines of this peptide [1] | normalised SPOT signal, Boehringer light units (BLU); mean over the file's lines of this peptide [2] | normalised SPOT signal, Boehringer light units (BLU); mean over the file's lines of this peptide [3] | normalised SPOT signal, Boehringer light units (BLU); mean over the file's lines of this peptide [4] | normalised SPOT signal, Boehringer light units (BLU); mean over the file's lines of this peptide [5] | Binder
1 | 108 | 52.4 | 35.5 | 54.7 | 69.3 | GYDPTDPNRPKVTK [YER166W 1426-1439]
2 | 80.3 | 60.3 | 67.7 | 747 | 222 | HGLPYKPSKLIRIF [YLR224W 329-342]
3 | 86.7 | 18.8 | 16 | 572 | 216 | HQIPSAPQRLVSII [YMR136W 114-127]
4 | 49.7 | 53.7 | 95.9 | 3170 | 126 | IAAPKKPRKPRQTK [YGL025C 241-254]
5 | 157 | 33.8 | 87.3 | 155 | 244 | HNSPVAPNRYAANL [YBR038W 84-97]
6 | 107 | 82.2 | 28.1 | 15.3 | 90.5 | HTPPLNPSKKSASI [YOR371C 699-712]
7 | 126 | 23.2 | 20.5 | 0 | 77.2 | IELPHDPHKHFHRD [YNL091W 543-556]
8 | 2290 | 77.8 | 282 | 16700 | 6510 | HSTPVTPRRLFTSQ [YGL003C 171-184]
9 | 61 | 15.5 | 1900 | 6510 | 1630 | HLPPPPPPRAQQQQ [YOR329C 664-677]
10 | 161 | 62.5 | 29.1 | 35.4 | 329 | HLDPEAPDKLLENS [YOR301W 109-122]

Further lines, the binder ahead of its results:

Row | Binder | normalised SPOT signal, Boehringer light units (BLU); mean over the file's lines of this peptide [1] | normalised SPOT signal, Boehringer light units (BLU); mean over the file's lines of this peptide [2] | normalised SPOT signal, Boehringer light units (BLU); mean over the file's lines of this peptide [3] | normalised SPOT signal, Boehringer light units (BLU); mean over the file's lines of this peptide [4] | normalised SPOT signal, Boehringer light units (BLU); mean over the file's lines of this peptide [5]
11 | HSEPAIPYRETFLS [YNL163C 746-759] | 83.3 | 14.6 | 35.1 | 92.9 | 634
12 | GWKPLRPIKLISWD [YJR126C 478-491] | 59.3 | 236 | 286 | 12000 | 407
13 | IAYPFYPFKKLGRQ [YGR165W 32-45] | 75.8 | 32.7 | 16.3 | 813 | 230
14 | HGVPVVPSREVTIN [YER014W 440-453] | 140 | 33.6 | 82 | 555 | 765
15 | HPDPADPAKELELN [YDR037W 377-390] | 72 | 12.4 | 50 | -0 | 161
16 | HEHPSGPLKKLFSD [YIL002C 144-157] | 1.6 | -0 | 13.3 | 167 | -0
17 | HSSPIAPSKAKRQR [YCR065W 64-77] | 673 | 170 | 561 | 1350 | 142
18 | HRGPRRPQKNRYNT [YMR280C 1394-1407] | 9.8 | 61 | 60.7 | 1710 | 161
19 | IELPTQPVRKNPEA [YOR042W 147-160] | 41.7 | 20.1 | 47 | 550 | 112
20 | IAHPVRPHRAITMT [YBR276C 631-644] | 3310 | 145 | 86.7 | 2660 | 225
21 | GYDPTDPSRPRINE [YDR093W 1469-1482] | 98.5 | 34.7 | 71.5 | -0 | 257
22 | IAYPGDPLRFHSHL [YAR008W 207-220] | 12 | 143 | 18.3 | 93.2 | 196
